Results reported in patent US20260083826A1, “NEW SYNTHETIC DRUGS FOR TREATING ALZHEIMER'S DISEASE” (OKINAWA INSTITUTE OF SCIENCE AND TECHNOLOGY SCHOOL …, priority 2022, published 2026).

What was measured:
[1] = target: Taxol-stabilized microtubules; assay: MT spin-down (co-sedimentation) assay with PHDP5 (1 mM) added as competitor to MT and dynamin 1
[2] = target: microtubules in mouse calyceal terminals (endogenous, assembled after h-tau loading), Q9ERD7
Sequence of microtubules in mouse calyceal terminals (endogenous, assembled after h-tau loading), Q9ERD7 (Q9ERD7 whole entry, looked up): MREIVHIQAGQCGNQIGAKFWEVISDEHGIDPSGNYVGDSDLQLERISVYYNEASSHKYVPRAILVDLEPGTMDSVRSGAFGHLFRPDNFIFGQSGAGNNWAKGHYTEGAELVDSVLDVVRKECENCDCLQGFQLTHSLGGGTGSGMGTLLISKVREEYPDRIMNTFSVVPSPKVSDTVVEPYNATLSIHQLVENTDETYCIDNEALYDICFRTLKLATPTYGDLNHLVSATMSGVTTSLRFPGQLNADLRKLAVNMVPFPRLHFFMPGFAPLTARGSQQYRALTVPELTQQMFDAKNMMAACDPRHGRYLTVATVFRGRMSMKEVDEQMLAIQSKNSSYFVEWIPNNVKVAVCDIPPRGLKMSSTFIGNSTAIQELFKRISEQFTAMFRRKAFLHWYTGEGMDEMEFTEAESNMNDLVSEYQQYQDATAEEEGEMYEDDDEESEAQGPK

| % of dynamin 1 in precipitates (ppts) relative to total amount [1] | Molecule | dynamin immunofluorescence in permeabilised h-tau-loaded terminals against terminals without h-tau loading [2] |
| --- | --- | --- |
| 6.3% | His-tagged human dynamin 1 (from UniProt Q05193 1-864) |  |
|  | dynamin 1 in mouse calyx of Held presynaptic terminals (endogenous) (protein) MGNRGMEDLIPLVNRLQDAFSAIGQNADLDLPQIAVVGGQSAGKSSVLENFVGRDFLPRGSGIVTRRPLVLQLVNSTTEYAEFLHCKGKKFTDFEEVRLEIEAETDRVTGTNKGISPVPINLRVYSPHVLNLTLVDLPGMTKVPVGDQPPDIEFQIRDMLMQFVTKENCLILAVSPANSDLANSDALKIAKEVDPQGQRTIGVITKLDLMDEGTDARDVLENKLLPLRRGYIGVVNRSQKDIDGKKDITAALAAERKFFLSHPSYRHLADRMGTPYLQKVLNQQLTNHIRDTLPGLRNKLQSQLLSIEKEVDEYKNFRPDDPARKTKALLQMVQQFAVDFEKRIEGSGDQIDTYELSGGARINRIFHERFPFELVKMEFDEKELRREISYAIKNIHGIRTGLFTPDLAFEATVKKQVQKLKEPSIKCVDMVVSELTSTIRKCSEKLQQYPRLREEMERIVTTHIREREGRTKEQVMLLIDIELAYMNTNHEDFIGFANAQQRSNQMNKKKTSGNQDEILVIRKGWLTINNIGIMKGGSKEYWFVLTAENLSWYKDDEEKEKKYMLSVDNLKLRDVEKGFMSSKHIFALFNTEQRNVYKDYRQLELACETQEEVDSWKASFLRAGVYPERVGDKEKASETEENGSDSFMHSMDPQLERQVETIRNLVDSYMAIVNKTVRDLMPKTIMHLMINNTKEFIFSELLANLYSCGDQNTLMEESAEQAQRRDEMLRMYHALKEALSIIGDINTTTVSTPMPPPVDDSWLQVQSVPAGRRSPTSSPTPQRRAPAVPPARPGSRGPAPGPPPAGSALGGAPPVPSRPGASPDPFGPPPQVPSRPNRAPPGVPRITISDP | a 2.6-fold increase in dynamin signal |
